Literature values as cited in publication PMC3012698, “Characterization of a Novel Interaction between Bcl-2 Members Diva and Harakiri” (PLoS ONE, 2010).

B1: Bak: proapoptotic Bcl-2 member Bak (protein, UniProt Q16611 2-211, looked up)
Bcl-2 homologous …: ASGQGPGPPRQECGEPALPSASEEQVAQDTEEVFRSYVFYRHQQEQEAEGVAAPADPEMVTLPLQPSSTMGQVGRQLAIIGDDINRRYDSEFQTMLQHLQPTAENAYEYFTKIATSLFESGINWGRVVALLGFGYRLALHVYQHGLTGFLGQVTRFVVDFMLHHCIARWIAQRGGWVAALNLGNGPILNVLVVLGVVLLGQFVVRRFFKS
B2: Bik: proapoptotic Bcl-2 member Bik (protein, UniProt Q13323 1-160, looked up)
Bcl-2-interacting killer: MSEVRPLSRDILMETLLYEQLLEPPTMEVLGMTDSEEDLDPMEDFDSLECMEGSDALALRLACIGDEMDVSLRAPRLAQLSEVAMHSLGLAFIYDQTEDIRDVLRSFMDGFTTLKENIMRFWRSPNPGSWVSCEQVLLALLLLLALLLPLLSGGLHLLLK
B3: Bad: BH3-only protein Bad (protein, UniProt Q92934 1-168, looked up)
Bcl2-associated agonist of …: MFQIPEFEPSEQEDSSSAERGLGPSPAGDGPSGSGKHHRQAPGLLWDASHQQEQPTSSSHHGGAGAVEIRSRHSSYPAGTEDDEGMGEEPSPFRGRSRSAPPNLWAAQRYGRELRRMSDEFVDSFKKGLPRPKSAGTATQMRQSSSWTRVFQSWWDRNLGRGSSAPSQ

How the values were obtained:
Diva = conditions: ref [21]
Description: Harakiri localizes in membranes and exerts proapoptotic activity by interacting with survival Bcl-XL and Bcl-2 [18]. Harakiri has not been characterized at the structural level except for its C-terminal sequence (∼30 amino acids), which is known from low-resolution techniques to adopt α-helical conformation in model membranes. Diva has also been found predominantly in membranes [20]–[21]. However, little functional data on Diva is available. Specifically, previous independent reports indicate that Diva can have both pro- or antiapoptotic function [20]–[21]. Diva has also been ...

[1] = ref [10]
Experimental: Circular dichroism (CD) experiments were performed on Harakiri's cytosolic domain to obtain information on its conformational behavior. […] Thus, the cytosolic domain of Harakiri is largely unstructured. Consequently, the NMR spectra of Hrk_ΔTM show small amide ^1H chemical shift dispersion (from ∼7.9 to 8.7 ppm) and severe signal overlap ( Fig. 6 ). These spectral features together with the absen ...

Row | Molecule | binding to Diva (co-immunoprecipitation) (Diva) | structural state of unbound BH3-only protein [1]
1 | B1 | bind | 
2 | B2 | bind | 
3 | B3 |  | unstructured
